These results are taken from article PMC4559334.

What all share (test): EMSA
What all share (conditions): not stated in the material held
(In general: In EMSA bound probe runs differently from free probe, usually more slowly.)

For data set [1], the system named is ED-C-Ala (Escherichia coli).
Data set [2] has as its system C-Ala (Escherichia coli).
Data set [3] deals with AlaRS full-length (Escherichia coli).

As usually defined, the Kd is the equilibrium constant for the complex coming apart. Lower therefore signals a tighter complex. Consider tRNAAla, 3'-labelled, for which the Kd in data set [1] turned out to be 2200 nM; in data set [2], 800 nM; in data set [3], 3000 nM.
